Results as given in patent US7387779B2, “Anti-angiogenic proteins and fragments and methods of use thereof” (Beth Israel Deaconess Medical Center, priority 1998, dated 2008).

Experiments:
[1] = tested on: C-PAE cells; assay: Cell attachment assay; assay type: cell-based, bovine
Method: The attachment of HUVECs to Tumstatin-coated plates in the presence of integrin subunits α1 through α6, β1, and αvβ3 integrin blocking antibody was examined. This assay was performed according to the method of Senger et al. (Senger, D. R. et al, 1997, Proc. Natl. Acad. Sci. USA 94:13612-7), with minor modification. 96-well plates were coated with either human Tumstatin, mouse laminin-1, or human Type IV collagen (Collaborative Biomedical Prods., Bedford, Mass., USA) at a concentration of 10 μg/ml overnight at 37° C. Vitronectin (Collaborative Biomed. Prods.) at a concentration of 0.5 μg/ml was then used to coat the plates. The remaining protein binding sites were blocked with 100 mg/ml of BSA (Sigma Chemical Co., St. Louis, Mo., USA) in PBS for 2 hours. HUVEC cells were grown to subconfluence (70-80%) in EGM-2 medium, gently trypsinized and resuspended in serum-free medium (1.5×10^5 cells/ml). The cells were mixed with 10 μg/ml of either mouse IgG, (control) (Life Technologies/Gibco BRL, Gaithersberg, Md., USA) or antibody (mouse monoclonal antibody to the human β1 integrin (clone P4C10) (Life Technologies/Gibco BRL); monoclonal antibody to human integrins α1 through α.6 (CHEMICON Int'l, Temecula, Calif., USA); αvβ3 integrin (clone LM609) (CHEMICON Int'l) and incubated for 15 minutes at room temperature, with gentle agitation. One hundred microliters of the cell suspension was then added to each well and incubated for 45 minutes at 37° C. Unattached cells were removed by washing, and the number of attached cells were counted after staining with methylene blue. C-PAE cells were used in separate experiments, following the above procedure.
To determine the attachment of C-PAE cells to plates coated with the Tumstatin deletion mutants, the cell attachment assay was performed as described above (see, e.g., Example 28). Rabbit antibody raised against Tum-4 was prepared as previously described (Kalluri et al., 1997, J. Clin. Invest. 99:2470-8). Goat anti-rabbit IgG antibody conjugated with horseradish peroxidase was purchased from Sigma Chemical Company (St. Louis, Mo., USA). […] Plates coated with Tum-1 (FIG. 36A) were also treated with anti-Tum-4 antibody (1:200 dilution) to block the previously reported (Shahan et al, 1999, Cancer Res. 59:4584-90) αvβ3 binding site, as well as the αvβ5 binding site.
Cell Attachment Activity: Cell attachment using endothelial cells was performed as described above. HUVEC or C-PAE cells were incubated with monoclonal anti-human integrin antibodies, control mouse IgG (10 μg/ml), or synthetic peptide, plated onto pre-coated 96-well plates, and the number of cells attaching to the plates was determined using measurement of methylene blue staining at OD655. […] CNGRC peptide was used as a control.
The cell attachment assay was performed as described above.
Tumstatin produced in 293 human embryonic kidney cells was used to coat tissue culture plates. […] PBS and BSA served as positive and negative controls, respectively.

[2] = tested on: Caspase-3 in PC-3 cells; assay: Caspase-3 assay; assay type: cell-based, human
Method: Tumstatin also altered cell morphology of C-PAE cells as monitored by phase contrast microscopy. After treating cells with 20 μg/ml of Tumstatin in the presence of 10% FCS for 24 hours on fibronectin-coated plates, the typical morphological features of apoptotic cells, membrane blebbing, cytoplasmic shrinkage, and chromatin condensation could be observed. […] Caspase-3 assay: Caspase-3 (CPP32) is an intracellular protease activated at the early stage of apoptosis, and initiates cellular breakdown by degrading structural and DNA repair proteins (Casciola-Rosen, L. et al., 1996, J. Exp. Med. 183:1957-64; Salvesen, G. S. et al., 1997, Cell 91:443-46). The protease activity of Caspase-3 was measured spectrophotometrically by detection of the chromophore (p-nitroanilide) cleaved from the labeled substrate (DEVD-pNA). C-PAE cells or PC-3 cells (0.5×10^6 per well) were plated onto a 6-well plate precoated with fibronectin (10 μg/ml) in DMEM supplemented with 10% FCS, and incubated overnight. The next day, the medium was replaced with DMEM containing 2% FCS and then incubated overnight at 37° C. Then cells were then stimulated with bFGF (3 ng/ml) in DMEM supplemented with 2% FCS, and also containing either TNF-α (80 ng/ml, positive control) or Tumstatin (10 μg/ml), and incubated for 24 hours. Controls received PBS buffer. […] Cells were counted and resuspended in cell lysis buffer (Clontech) at a concentration of 4×10^7 cells/ml. […] The absorbance was measured in a microplate reader (Bio-Rad, Hercules, Calif., USA) at 405 nm. […]
The results are shown in FIG. 53, which is a histogram showing caspase-3 activity (as measured at OD405, y-axis) of (x-axis) the control, control+DEVD-fmk, TNF-α, TNF-α+DEVD-fmk, Tumstatin-44-131 (1 μg/ml and 10 μg/ml), and Tumstatin-44-131 (10 μg/ml)+DEVD-fmk. […]
The protease activity of Caspase-3 in cells treated with T3 peptide was measured spectrophotometrically by detection of the chromophore (p-nitroanilide) cleaved from the labeled substrate (DEVD-pNA). […]

[3] = tested on: Goodpasture autoantibody; assay: Reactivity with Goodpasture autoantibody (western blotting); assay type: binding, human
Text: Goodpasture syndrome is an autoimmune disease characterized by pulmonary hemorrhage and/or rapidly progressing glomerulonephritis, which are caused by the disruption of glomerular and alveolar basement membranes through immune injury associated with autoantibody activity against α3(IV) NC1. Recently, the most probable disease-related pathogenic epitope was identified in the N-terminal portion (Kalluri, R. et al., 1996, J. Biol. Chem. 271:9062-8; Hellmark, T. et al., 1999, Kidney Int. 55:938-44), and was then further confined within the N-terminal 40 amino acids (Hellmark, T. et al., 1999, J. Biol. Chem. 274:25862-8; Netzer, K. O. et al., 1999, J. Biol. Chem. 274:11267-74). The N-terminal Tumstatin-44-131 consists of residues 44-131 of Tumstatin, which is outside of the Goodpasture autoepitope. To further confirm that Tumstatin-44-131 would not be detected by Goodpasture autoantibody, antisera from patients with Goodpasture was used for western blotting.

Molecule: LQRFTTMPFLFCNVNDVCNF [T3]
- attachment to T3-coated plates with anti-αv or anti-β1 integrin antibody [1]: did not inhibit
- attachment to T3 peptide-coated plates with anti-β3 integrin antibody [1]: inhibited by a preincubation with anti-β3 integrin antibody
- inhibition of cell attachment to Tum-4-coated plates by peptide [1]: failed to inhibit
- inhibition of cell attachment onto Tum-5-coated plates by peptide ([1]; 2.5 μg/ml peptide): significantly inhibited
- inhibition of cell attachment to Tumstatin-coated plates by peptide ([1]; 10 μg/ml peptide, 293-produced Tumstatin coating): 46.4%
- binding to vitronectin-coated plates (2.5 μg/ml) in the presence of peptide ([1]; 0.1, 1.0, 10.0 μg/ml peptide): not inhibited
- Caspase-3 activity in nonendothelial PC-3 cells [2]: no difference

B1: Tum-4: residues 181 to 244 of Tumstatin (SEQ ID NO:25) (protein)
chain: EFRASPFLECHGRGTCNYYSNSYSFWLASLNPERMFRKPIPSTVKAGELEKIISRCQVCMKKRH
modifications: Tum-4 (amino acids 181-244 of SEQ ID NO10)
- inhibition of attachment of C-PAE cells to coated plates by αvβ3 antibody ([1]; label = plate coating): 62.6%
- inhibition of binding of C-PAE cells to coated plates by αvβ5 antibody ([1]; label = plate coating): not inhibited

B2: Tum-2: residues 1 to 132 of Tumstatin (SEQ ID NO:23) (protein)
chain: GLKGKRGDSGSPATWTTRGFVFTRHSQTTAIPSCPEGTVPLYSGFSFLFVQGNQRAHGQDLGTLGSCLQRFTTMPFLFCNVNDVCNFASRNDYSYWLSTPALMPMNMAPITGRALEPYISRCTVCEGPAIAI
modifications: Tum-2 (amino acids 1-132 of SEQ ID NO10)
- inhibition of attachment of C-PAE cells to coated plates by αvβ3 antibody ([1]; label = plate coating): 69.8%
- inhibition of binding of C-PAE cells to coated plates by αvβ5 antibody ([1]; label = plate coating): not inhibited

B3: Tumstatin: NC1 domain of the α3 chain of type IV collagen, residues 1-244 (SEQ ID NO:10) (protein, listed as Homo sapiens)
chain: GLKGKRGDSGSPATWTTRGFVFTRHSQTTAIPSCPEGTVPLYSGFSFLFVQGNQRAHGQDLGTLGSCLQRFTTMPFLFCNVNDVCNFASRNDYSYWLSTPALMPMNMAPITGRALEPYISRCTVCEGPAIAIAVHSQTTDIPPCPHGWISLWKGFSFIMFTSAGSEGTGQALASPGSCLEEFRASPFLECHGRGTCNYYSNSYSFWLASLNPERMFRKPIPSTVKAGELEKIISRCQVCMKKRH
- detection by antisera / autoantibodies from patients with Goodpasture syndrome [3]: detected
- Caspase-3 activity in nonendothelial PC-3 cells [2]: no difference

B4: Tum-1: residues 54 to 244 of Tumstatin, lacking the N-terminal 53 amino acids (SEQ ID NO:22) (protein)
chain: QRAHGQDLGTLGSCLQRFTTMPFLFCNVNDVCNFASRNDYSYWLSTPALMPMNMAPITGRALEPYISRCTVCEGPAIAIAVHSQTTDIPPCPHGWISLWKGFSFIMFTSAGSEGTGQALASPGSCLEEFRASPFLECHGRGTCNYYSNSYSFWLASLNPERMFRKPIPSTVKAGELEKIISRCQVCMKKRH
modifications: Tum-1 (Tumstatin N-53) (amino acids 54-244 of SEQ ID NO10)
- detection by antisera / autoantibodies from patients with Goodpasture syndrome [3]: did not bind autoantibodies
- inhibition of attachment of C-PAE cells to coated plates by αvβ3 antibody ([1]; label = plate coating): 55.9%
- inhibition of binding of C-PAE cells to coated plates by αvβ5 antibody ([1]; label = plate coating): not inhibited

B5: Tumstatin-44-131: residues 44 to 131 of full-length Tumstatin (SEQ ID NO:33) (protein)
chain: FSFLFVQGNQRAHGQDLGTLGSCLQRFTTMPFLFCNVNDVCNFASRNDYSYWLSTPALMPMNMAPITGRALEPYISRCTVCEGPAIAI
modifications: Tumstatin-45-132 (amino acids 45-132 of SEQ ID NO10)
- detection by antisera / autoantibodies from patients with Goodpasture syndrome [3]: failed to detect
- attachment to coated plates in the presence of RGD peptide (CDCRGDCFC) ([1]; label = plate coating): not inhibited
- Caspase-3 activity in nonendothelial PC-3 cells [2]: not observed
